Laboratory results: patent publication US20240116985A1 (published 2024)
Starred links: 1 amine or outer side, 2 acyl side, 3 side chain; linkers in the order of their positions; H or OH if unused. Positions of bridges follow the written chain, without caps; N, C: chain ends. Non-standard residues stand in square brackets, D forms with d. Primed or numbered codes have the meaning given here. *: point of attachment. PyrS2″ = (S)-3-amino-1-((pent-4-en-1-yloxy)carbonyl)pyrrolidine-3-carboxylic acid (stapling residue), C=CCCCOC(=O)N1CC[C@@](N[*:1])(C(=O)[*:2])C1; B5(4) = 2,2-bis(4-pentenyl)glycine = 2-amino-2-(pent-4-en-1-yl)hept-6-enoic acid (stitching residue), C=CCCCC(CCCC=C)(N[*:1])C(=O)[*:2]; TfeGA = (S)-2-amino-3-((carboxymethyl)(2,2,2-trifluoroethyl)amino)propanoic acid, O=C([C@H](CN(CC(=O)[*:3])CC(F)(F)F)N[*:1])[*:2]; B5(3) = 2,2-bis(4-pentenyl)glycine (stitching residue), C=CCCCC(CCCC=C)(N[*:1])C(=O)[*:2]; Phe(2-Cl) = N[C@@H](Cc1ccccc1Cl)C(=O)O; Bta = N[C@@H](Cc1csc2ccccc12)C(=O)O; αAllylPro = C=CC[C@@]1(C(=O)O)CCCN1; tBuAla = CC(C)(C)C[C@H](N)C(=O)O; 3Thi = N[C@@H](Cc1ccsc1)C(=O)O; Leu(ol) = CC(C)C[C@H](N)CO; Alaol = C[C@@H](CO)N*

What was measured:
[1] = biological target: T1, beta-catenin (Homo sapiens (Human), UniProt P35222 2-781); test: cell-based or functional assay
T1 sequence: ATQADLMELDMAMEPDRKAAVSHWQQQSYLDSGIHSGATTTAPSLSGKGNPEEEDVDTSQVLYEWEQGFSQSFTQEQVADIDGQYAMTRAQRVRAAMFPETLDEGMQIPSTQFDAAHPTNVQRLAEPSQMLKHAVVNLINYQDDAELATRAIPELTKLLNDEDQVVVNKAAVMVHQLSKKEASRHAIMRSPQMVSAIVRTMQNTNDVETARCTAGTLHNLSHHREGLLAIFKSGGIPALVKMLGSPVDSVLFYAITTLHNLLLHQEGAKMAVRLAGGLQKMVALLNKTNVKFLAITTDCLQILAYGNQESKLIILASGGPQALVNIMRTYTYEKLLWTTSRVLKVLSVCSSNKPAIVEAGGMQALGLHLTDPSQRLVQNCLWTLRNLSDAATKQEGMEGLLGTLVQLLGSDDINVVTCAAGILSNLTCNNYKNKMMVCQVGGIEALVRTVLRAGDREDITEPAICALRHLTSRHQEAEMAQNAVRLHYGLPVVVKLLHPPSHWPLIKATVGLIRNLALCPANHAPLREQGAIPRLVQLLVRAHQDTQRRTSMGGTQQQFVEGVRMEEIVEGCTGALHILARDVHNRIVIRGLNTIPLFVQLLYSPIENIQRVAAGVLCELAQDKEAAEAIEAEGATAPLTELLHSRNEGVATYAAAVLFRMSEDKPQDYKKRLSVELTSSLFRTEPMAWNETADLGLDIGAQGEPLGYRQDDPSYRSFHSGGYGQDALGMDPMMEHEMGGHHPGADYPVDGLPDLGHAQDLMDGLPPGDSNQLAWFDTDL

[2] = biological target: T2, beta-catenin (Homo sapiens (Human), UniProt P35222 1-781); test: cell-based or functional assay
T2 sequence: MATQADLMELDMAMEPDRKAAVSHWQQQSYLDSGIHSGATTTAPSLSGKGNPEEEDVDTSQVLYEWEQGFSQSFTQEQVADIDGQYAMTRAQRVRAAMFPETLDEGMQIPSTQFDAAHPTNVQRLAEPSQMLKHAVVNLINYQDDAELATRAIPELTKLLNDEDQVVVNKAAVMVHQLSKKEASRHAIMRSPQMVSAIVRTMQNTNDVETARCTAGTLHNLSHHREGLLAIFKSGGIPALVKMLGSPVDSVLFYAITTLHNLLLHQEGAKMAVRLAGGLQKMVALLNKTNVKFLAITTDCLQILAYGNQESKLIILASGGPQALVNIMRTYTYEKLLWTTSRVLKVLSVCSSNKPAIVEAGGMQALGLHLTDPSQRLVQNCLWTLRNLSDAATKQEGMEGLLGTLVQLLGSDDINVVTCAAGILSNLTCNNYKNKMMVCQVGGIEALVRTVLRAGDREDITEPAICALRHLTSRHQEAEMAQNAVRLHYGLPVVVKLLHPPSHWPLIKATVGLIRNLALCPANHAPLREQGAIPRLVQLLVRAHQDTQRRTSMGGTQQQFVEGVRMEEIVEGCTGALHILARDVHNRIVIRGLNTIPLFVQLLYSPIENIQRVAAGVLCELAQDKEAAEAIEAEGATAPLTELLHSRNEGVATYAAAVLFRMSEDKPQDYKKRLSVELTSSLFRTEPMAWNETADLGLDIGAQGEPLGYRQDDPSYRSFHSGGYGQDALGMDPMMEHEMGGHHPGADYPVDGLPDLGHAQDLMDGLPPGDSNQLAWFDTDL

Ac-[αAllylPro]D[tBuAla][B5(3)]DDAAFN[PyrS2″][Phe(2-Cl)][Bta]-Alaol (staple 1-4, 4-11) [I-1081]
DLD1 TCF c2 BrightGlo % Inhibition (TCF/LEF luciferase reporter; 0.625 uM by plate map, replicate 1) [1]: 9.2%
DLD1 TCF c2 BrightGlo % Inhibition (TCF/LEF luciferase reporter; 0.625 uM by plate map, replicate 2) [1]: 7.1%
DLD1 TCF c2 BrightGlo % Inhibition (TCF/LEF luciferase reporter; 0.625 uM by plate map, replicate 3) [1]: 11.5%
DLD1 TCF c2 BrightGlo % Inhibition (TCF/LEF luciferase reporter; 1.25 uM by plate map, replicate 1) [1]: 0.8%
DLD1 TCF c2 BrightGlo % Inhibition (TCF/LEF luciferase reporter; 1.25 uM by plate map, replicate 2) [1]: 2.4%
DLD1 TCF c2 BrightGlo % Inhibition (TCF/LEF luciferase reporter; 1.25 uM by plate map, replicate 3) [1]: 5.4%
DLD1 TCF c2 BrightGlo % Inhibition (TCF/LEF luciferase reporter; 2.5 uM by plate map, replicate 1) [1]: 4.5%
DLD1 TCF c2 BrightGlo % Inhibition (TCF/LEF luciferase reporter; 2.5 uM by plate map, replicate 2) [1]: 7.9%
DLD1 TCF c2 BrightGlo % Inhibition (TCF/LEF luciferase reporter; 2.5 uM by plate map, replicate 3) [1]: 15.2%
DLD1 TCF c2 BrightGlo % Inhibition (TCF/LEF luciferase reporter; 5 uM by plate map, replicate 1) [1]: 17.5%
DLD1 TCF c2 BrightGlo % Inhibition (TCF/LEF luciferase reporter; 5 uM by plate map, replicate 2) [1]: 23.8%
DLD1 TCF c2 BrightGlo % Inhibition (TCF/LEF luciferase reporter; 5 uM by plate map, replicate 3) [1]: 31%
DLD1 TCF c2 BrightGlo % Inhibition (TCF/LEF luciferase reporter; 10 uM by plate map, replicate 1) [1]: 45.6%
DLD1 TCF c2 BrightGlo % Inhibition (TCF/LEF luciferase reporter; 10 uM by plate map, replicate 2) [1]: 49.8%
DLD1 TCF c2 BrightGlo % Inhibition (TCF/LEF luciferase reporter; 10 uM by plate map, replicate 3) [1]: 55.3%
DLD1 TCF c2 BrightGlo % Inhibition (TCF/LEF luciferase reporter; 20 uM by plate map, replicate 1) [1]: 67.2%
DLD1 TCF c2 BrightGlo % Inhibition (TCF/LEF luciferase reporter; 20 uM by plate map, replicate 2) [1]: 69.3%
DLD1 TCF c2 BrightGlo % Inhibition (TCF/LEF luciferase reporter; 20 uM by plate map, replicate 3) [1]: 72.3%

Ac-[αAllylPro]D[tBuAla][B5(4)]DDAAFN[PyrS2″][Phe(2-Cl)][Bta][Leu(ol)] (staple 1-4, 4-11) [I-1080]
DLD1 TCF c2 BrightGlo % Inhibition (TCF/LEF luciferase reporter; 0.625 uM by plate map, replicate 1) [1]: 20.2%
DLD1 TCF c2 BrightGlo % Inhibition (TCF/LEF luciferase reporter; 0.625 uM by plate map, replicate 2) [1]: 13.7%
DLD1 TCF c2 BrightGlo % Inhibition (TCF/LEF luciferase reporter; 0.625 uM by plate map, replicate 3) [1]: 15.3%
DLD1 TCF c2 BrightGlo % Inhibition (TCF/LEF luciferase reporter; 1.25 uM by plate map, replicate 1) [1]: 16%
DLD1 TCF c2 BrightGlo % Inhibition (TCF/LEF luciferase reporter; 1.25 uM by plate map, replicate 2) [1]: 13.8%
DLD1 TCF c2 BrightGlo % Inhibition (TCF/LEF luciferase reporter; 1.25 uM by plate map, replicate 3) [1]: 12.3%
DLD1 TCF c2 BrightGlo % Inhibition (TCF/LEF luciferase reporter; 2.5 uM by plate map, replicate 1) [1]: 14.6%
DLD1 TCF c2 BrightGlo % Inhibition (TCF/LEF luciferase reporter; 2.5 uM by plate map, replicate 2) [1]: 19.8%
DLD1 TCF c2 BrightGlo % Inhibition (TCF/LEF luciferase reporter; 2.5 uM by plate map, replicate 3) [1]: 7.9%
DLD1 TCF c2 BrightGlo % Inhibition (TCF/LEF luciferase reporter; 5 uM by plate map, replicate 1) [1]: 24.9%
DLD1 TCF c2 BrightGlo % Inhibition (TCF/LEF luciferase reporter; 5 uM by plate map, replicate 2) [1]: 31%
DLD1 TCF c2 BrightGlo % Inhibition (TCF/LEF luciferase reporter; 5 uM by plate map, replicate 3) [1]: 24.4%
DLD1 TCF c2 BrightGlo % Inhibition (TCF/LEF luciferase reporter; 10 uM by plate map, replicate 1) [1]: 42.4%
DLD1 TCF c2 BrightGlo % Inhibition (TCF/LEF luciferase reporter; 10 uM by plate map, replicate 2) [1]: 42.2%
DLD1 TCF c2 BrightGlo % Inhibition (TCF/LEF luciferase reporter; 10 uM by plate map, replicate 3) [1]: 38.1%
DLD1 TCF c2 BrightGlo % Inhibition (TCF/LEF luciferase reporter; 20 uM by plate map, replicate 1) [1]: 51.4%
DLD1 TCF c2 BrightGlo % Inhibition (TCF/LEF luciferase reporter; 20 uM by plate map, replicate 2) [1]: 56.9%
DLD1 TCF c2 BrightGlo % Inhibition (TCF/LEF luciferase reporter; 20 uM by plate map, replicate 3) [1]: 51.8%

Ac-[αAllylPro]D[tBuAla][B5(3)][3Thi][TfeGA]AAFN[PyrS2″]D[Bta]Q-NH2 (staple 1-4, 4-11) [I-1001]
DLD1 TCF c2 BrightGlo % Inhibition, 0.625 uM, replicate 1 [2]: -1.5%
DLD1 TCF c2 BrightGlo % Inhibition, 0.625 uM, replicate 2 [2]: 9.3%
DLD1 TCF c2 BrightGlo % Inhibition, 0.625 uM, replicate 3 [2]: 4.5%
DLD1 TCF c2 BrightGlo % Inhibition, 1.25 uM, replicate 1 [2]: -7%
DLD1 TCF c2 BrightGlo % Inhibition, 1.25 uM, replicate 2 [2]: -2.8%
DLD1 TCF c2 BrightGlo % Inhibition, 1.25 uM, replicate 3 [2]: 6.1%
DLD1 TCF c2 BrightGlo % Inhibition, 2.5 uM, replicate 1 [2]: -8%
DLD1 TCF c2 BrightGlo % Inhibition, 2.5 uM, replicate 2 [2]: -7.6%
DLD1 TCF c2 BrightGlo % Inhibition, 2.5 uM, replicate 3 [2]: -5%
DLD1 TCF c2 BrightGlo % Inhibition, 5 uM, replicate 1 [2]: -6.7%
DLD1 TCF c2 BrightGlo % Inhibition, 5 uM, replicate 2 [2]: -6.7%
DLD1 TCF c2 BrightGlo % Inhibition, 5 uM, replicate 3 [2]: -0.7%
DLD1 TCF c2 BrightGlo % Inhibition, 10 uM, replicate 1 [2]: -3.6%
DLD1 TCF c2 BrightGlo % Inhibition, 10 uM, replicate 2 [2]: -4.8%
DLD1 TCF c2 BrightGlo % Inhibition, 10 uM, replicate 3 [2]: -7.4%
DLD1 TCF c2 BrightGlo % Inhibition, 20 uM, replicate 1 [2]: -1.2%
DLD1 TCF c2 BrightGlo % Inhibition, 20 uM, replicate 2 [2]: 7.5%
DLD1 TCF c2 BrightGlo % Inhibition, 20 uM, replicate 3 [2]: 3.5%
